The supplement of paper PMC10724198
± gives the standard deviation of the averaged measurements.

Tested on: Saccharomyces cerevisiae
Assay: protein stability index of tFT-peptide fusion (C-terminal peptide) (PSI (0-1 scale)); higher = more stable (slower turnover)
Details: genetic background: wild type; temperature: 30 C
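Further: PSI is a weighted mean of sequencing reads over stability bins, variants kept only with over 10 reads, mCherry proximal and sfGFP distal, peptide attached via GGGS linker.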

In order of rising protein stability index:
1. RVKMEFGRYRIF  0.52266 ± 0.0005
2. SCVWVLPLGFLR  0.575 ± 0.058
3. PPFRPFTSPVTY  0.579 ± 0.031
4. GNTNIYIVMRES  0.5935 ± 0.0031
5. SAPEPTISKLLP  0.603 ± 0.027
6. LSLVDCIGFFFC  0.603 ± 0.043
7. VTPLPSLPHHRA  0.604 ± 0.041
8. PPSPPVRPPLLA  0.617 ± 0.14
9. VLYPVISVLTTL  0.629 ± 0.011
10. APPPPPPPPPPP  0.63 ± 0.056
11. AAMQCSRASTSS  0.634 ± 0.077
12. STIIYFLTYSDK  0.634 ± 0.063
13. SHALSFSFSLLP  0.6367 ± 0.0052
14. VDCTCLPKRTYE  0.643 ± 0.1
15. KKRRPKINEIKE  0.643 ± 0.013
16. ARLGSVFLDPSG  0.64833 ± 0.0003
17. LCLFPSSFRLPP  0.6489 ± 0.0051
18. LSAVISHLGNSK  0.65058 ± 0.0002
19. DGGVGRALEHGE  0.652 ± 0.0083
20. PLRISQLDVVRS  0.655 ± 0.045
21. VLDPRGEFFSHP  0.657 ± 0.044
22. VSFRRFKFKVKM  0.661 ± 0.061
23. RMINHGNKAKFS  0.662 ± 0.016
24. MRIKSMLHHSKV  0.66213 ± 0.00021
25. EIHKDSNTENIK  0.663 ± 0.0031
26. KDNCHSNQRELT  0.663 ± 0.046
27. RPSTSRKVKIDV  0.663 ± 0.066
28. VVRGPSGAGRAG  0.665 ± 0.052
29. VQRKVCTFRRSD  0.665 ± 0.14
30. RVWSMYCSEANG  0.666 ± 0.017
31. EVDHLPHQVFRY  0.6671 ± 0.0021
32. PPPRPCRAPAAA  0.668 ± 0.089
33. SEKIRDQQPTPA  0.671 ± 0.044
34. CGVSRIGLAGDV  0.671 ± 0.039
35. RYENRGRMKRER  0.676 ± 0.042
36. VHRMWINARDCV  0.676 ± 0.05
37. PPPYPRSTPFVP  0.6774 ± 0.005
38. PPLFTLSFSHFV  0.679 ± 0.021
39. AAGDLGNKCGWG  0.68 ± 0.025
40. PPTFFQRSPLRP  0.681 ± 0.033
41. LHSFLLSVGRGF  0.681 ± 0.015
42. SRPPPFFPPASP  0.682 ± 0.01
43. GLWEVVEITRRE  0.684 ± 0.049
44. SAIALGCEGVYP  0.6853 ± 0.0012
45. SSMCPDGGYQWV  0.686 ± 0.0074
46. KSEKQKSNRKEF  0.686 ± 0.071
47. DKPRKVLPNENS  0.6871 ± 0.0017
48. VCVCCMGCGLGV  0.68773 ± 5.6e-05
49. PPTHPPLPPPLL  0.689 ± 0.07
50. PPPQYILPPRFP  0.691 ± 0.017
51. KRGNEEYSRGNN  0.692 ± 0.012
52. RAITPRHKRLVG  0.6934 ± 0.0031
53. PPPSVPPSLTPP  0.693 ± 0.03
54. SHSLPHLSGPPR  0.698 ± 0.056
55. ELCWCSKDNCYP  0.6993 ± 0.0059
56. TLCCLFPIPSSS  0.699 ± 0.08
57. VDGLRASRFVGS  0.7 ± 0.048
58. ALPFPASTSPLS  0.701 ± 0.048
59. QKHGARISSQKK  0.703 ± 0.012
60. GRIFAGCGGGGV  0.705 ± 0.06
61. GGLRWVLGAQAV  0.707 ± 0.063
62. PPPPPHHRPPSS  0.709 ± 0.077
63. VRGDRRHRGVWG  0.709 ± 0.066
64. SLFRYPLALPFP  0.711 ± 0.012
65. GRGGWPPWFKHK  0.712 ± 0.033
66. HAEREDTESQTR  0.714 ± 0.05
67. PPNPSTPSACPP  0.717 ± 0.052
68. TLRPPPPPAFPP  0.719 ± 0.084
69. PPPPTLPPPPLS  0.722 ± 0.14
70. HKVETHQIIQIK  0.726 ± 0.043
71. PRSCPPFLPSLP  0.727 ± 0.0099
72. HLLLLDLTRPIL  0.745 ± 0.061
73. LETVPVPPPPSA  0.747 ± 0.057
74. RARPGRACPGAP  0.755 ± 0.0097
75. VGLGMREWLGVE  0.758 ± 0.026
76. GEKKTNHEPGAS  0.759 ± 0.06
77. EKLKTKEEKKTR  0.759 ± 0.054
78. HSVVANECHQGQ  0.766 ± 0.11
79. GGWAGGRQGCGG  0.77 ± 0.012
80. LPFLFTSFAPAA  0.776 ± 0.081
81. ISWTRAPLAHPR  0.879 ± 0.17
